Substitutions are numbered along the chain they refer to.
T1: human IL-2Rα (human, UniProt P01589 22-240, limits assumed)
T1 construct: recombinant protein; also called hu IL-2R; human IL-2Ra
T1 sequence: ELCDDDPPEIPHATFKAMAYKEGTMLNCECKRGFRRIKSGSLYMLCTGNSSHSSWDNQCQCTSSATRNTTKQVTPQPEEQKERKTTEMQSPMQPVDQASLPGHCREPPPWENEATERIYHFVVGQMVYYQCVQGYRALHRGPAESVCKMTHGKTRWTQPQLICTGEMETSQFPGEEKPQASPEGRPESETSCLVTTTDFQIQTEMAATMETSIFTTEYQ

B1: 07-MP01G08 (VHH)
VHH: EVQLVESGGGLVQAGGSLRLSCAASGRAFSMYNMGWFRQAPGKEREFVAATGWSGANTPYADSVKGRFTISRDNTQNTVYLQMNSLKPEDTATYYCAADSIRLRSDVTRIPLEYDYWGQGTQVTVSS
notes: periplasmic extract; also called FJ1427_P035MP01G08
B2: 10-MP05F03 (VHH)
VHH: QVQLVESGGGLVQAGGSLRLSCAASGIPFDNYAMGWFRQAPGKEREFVAARDLEGIITRYGDSVKGRFTISRGNAKNTVFLQMNSLKPEDTAVYYCAARDGGVVAGSRSSAQYNYWGQGTQVTVSS
notes: periplasmic extract; also called FJ1427_P035MP05F03
B3: FJ1427_P035MP05D06 (VHH)
VHH: QVQLVESGGGLVQAGDSLRLSCAASGFNFGWHAMGWFRQAPGKEREFVATITWTGRDTYYADSVRGRFTISKDNAKDTLFLQMNSLRPDDTGVYYCAKARERATWAYSEDDCDYWGQGTQVTVSS
notes: periplasmic extract; also called clone nr
B4: FJ1427_P035MP05H05 (VHH)
VHH: B3 VHH with D77N, N84S
notes: as for B3
B5: FJ1427_P035MP05F06 (VHH)
VHH: B3 VHH with Q1E
notes: periplasmic extract; also called clone nr; 430
B6: 13-MP05E12 (VHH)
VHH: B3 VHH with V5Q
notes: periplasmic extract; The row prints V ID 13-MP05E12 beside Clone ID ...MP05H07; clone nr; also called FJ1427_P035MP05H07
B7: FJ1427_P035MP01F02 (VHH)
VHH: QVQLQESGGGLVQAGGSLRLSCAASGRTFRTHNMGWFRRAPGKEREFVAAISWNIDNKLYADSVKGRSTISRDNGGNMVFLQMNSLKPEDTAVYYCAADKIPLSSDVAATATEYDDWGQGTQVTVSS
notes: periplasmic extract; also called clone nr; 14
B8: FJ1427_P035MP01F08 (VHH)
VHH: EVQLVESGGGWVQPGDSLRLSCAASGRSFRNYVMGWFRQVPGKEREFLSVITSLGGTLDADSVADRFTISRDNSKNTVYLQMDSLKPEDTAVYYCAADRGPARYISASDVDYWGQGTQVTVSS
notes: periplasmic extract; also called clone nr; 62
B9: FJ1427_P035MP01D04 (VHH)
VHH: B8 VHH with E1Q, S53W
notes: periplasmic extract; also called clone nr; 28
B10: FJ1427_P035MP01B01 (VHH)
VHH: B8 VHH with P14A, S28T, L58V, D59Y, D65N, S74P, N76D, V121A
notes: as for B3
B11: FJ1427_P035MP01F06 (VHH)
VHH: QLQLVESGGGLVQAGGSLRLSCAASGGAFSRYAVGWFRMAPGKGREFVSAIDLSGTNTHVLDSVKGRFTISRDNDKNTAYLQMDKLQPEDTAVYWCAATSSSYSDYEANYNIWGQGTQVTVSS
notes: periplasmic extract; also called clone nr; 46
B12: FJ1427_P035MP01H02 (VHH)
VHH: B11 VHH with G16D, G27R, D52N, L53S, T56A, H59Y, K85S, D105T, I112V
notes: periplasmic extract; also called clone nr; 16
B13: FJ1427_P035MP01G10 (VHH)
VHH: B11 VHH with Q1E, L2V
notes: periplasmic extract; also called clone nr; 79
B14: 3-MP01E03 (VHH)
VHH: QVQLVESGGGLVQAGGSLRLSCTASGRTLSSYSMAWFRQAADKGREFVTAISSSGVVTHVLDSVKGRFTISRDNAKNTVYLQMNSLQPEDTALYFCAGTASSYSTYEANYNYWGQGTLVTVSS
notes: periplasmic extract; also called FJ1427_P035MP01E03
B15: FJ1427_P035MP01H07 (VHH)
VHH: B14 VHH with Q1E, T23A, S31G, S33A, A40P, A41P, V56I, G98A, T105D
notes: periplasmic extract; also called clone nr; 56
B16: FJ1427_P035MP01E10 (VHH)
VHH: QVQLVESGGGLVQAGDSLRLSCAASGRSFRNYILAWYRQAPGKEREFLAAISWLDGTLYADSVEDRFTISRDNPKNTVHLQMDSLKPEDTAVYYCAADRGPVRPVLAPDVDYWGQGTQVTVSS
notes: periplasmic extract; also called clone nr; 77
B17: FJ1427_P035MP01E04 (VHH)
VHH: B16 VHH with A24V, L58F, D61N, D65G, S84G, S122A
notes: periplasmic extract; also called clone nr; 29
B18: FJ1427_P035MP01A01 (VHH)
VHH: B16 VHH with Q1E, S84N, T120S
notes: as for B3
B19: FJ1427_P035MP01G07 (VHH)
VHH: B16 VHH with A14T, D65G
notes: periplasmic extract; also called clone nr; 55
B20: FJ1427_P035MP01D11 (VHH)
VHH: B16 VHH with V2L, L34M
notes: periplasmic extract; also called clone nr; 84
B21: FJ1427_P035MP01B12 (VHH)
VHH: B16 VHH with V5Q, L58F, D61N, D65G, S84G, S122A
notes: periplasmic extract; also called clone nr; 90
B22: FJ1427_P035MP01F11 (VHH)
VHH: B16 VHH with V5Q
notes: periplasmic extract; also called clone nr; 86
B23: FJ1427_P035MP01E07 (VHH)
VHH: B16 VHH with V5Q, D55E
notes: periplasmic extract; also called clone nr; 53
B24: FJ1427_P035MP01E02 (VHH)
VHH: B16 VHH with S84N
notes: periplasmic extract; also called clone nr; 13
B25: 5-MP01F05 (VHH)
VHH: EVQLVESGGGLVQAGGSLRLSCAASIRAFTTWSMAWFRQAPGKEREYVARINVSGSVTYYADFVKGRFTISRDNAKKTMYLEMNNLKPEDTALYYCAADRTGVGTNDYNYWGQGTQVTVSS
notes: periplasmic extract; also called FJ1427_P035MP01F05
B26: 6-MP01G05 (VHH)
VHH: QVQLQESGGGLVQAGGSLRLSCAASGRTFSSYAMGWFRQAPGKEREFVAVISWNVDNTEYTDSVKGRFTISRDNDKNMVYLQMNSLKPEDTAVYYCAADSIPLSSDMSPTATEYGYWGQGTQVTVSS
notes: periplasmic extract; also called FJ1427_P035MP01G05
B27: FJ1427_P035MP01A11 (VHH)
VHH: QVQLVESGGGLVQPGGSLRLSCAASGRTFETHNMGWFRRAPGKEREFVAVISWNVDSTEYTDSVKGRFTISRDNDKNMVYLQMNSLKPEDTGVYYCAADNIPLSSDMSPTAAEYGYWGQGTQVTVSS
notes: periplasmic extract; also called clone nr; 81
B28: 8-MP01C12 (VHH)
VHH: QVQLVESGGGLVQPGGSLRLSCATSGFTFSNNFMSWVRQAPGKGLEFVSTISYGGESTTYAEAVKGRFTISRDNAKNTLYLQMNNLKPEDTAIYYCAKATSYTSIRGAPRGQGTQVTVSS
notes: periplasmic extract; also called FJ1427_P035MP01C12
B29: FJ1427_P035MP01G04 (VHH)
VHH: QVQLVESGGGLVQPGGSLRLSCAASGFTFSNNFMSWVRQAPGKGLEWVSTISYFGDSTRYAESVKGRFTISRDNEKNTLHLQMNNLKPEDTAVYYCAKATSYDSIRSGSRGRGTQVTVSS
notes: periplasmic extract; also called clone nr; 31
B30: FJ1427_P035MP01F03 (VHH)
VHH: B29 VHH with F54G, D56E, R59T, E75A, H80Y, I105V, R112Q
notes: periplasmic extract; also called clone nr; 22
B31: FJ1427_P035MP01D03 (VHH)
VHH: B29 VHH with Q1E, A24T, S30R, K43E, F54G, D56E, R59T, E75A, H80Y, R112Q
notes: periplasmic extract; also called clone nr; 20
B32: FJ1427_P035MP01H05 (VHH)
VHH: B29 VHH with Q1E, R59T, E75A, H80Y
notes: periplasmic extract; also called clone nr; 40
B33: FJ1427_P035MP01C03 (VHH)
VHH: B29 VHH with Q1E, A24T, S30R, F54G, D56E, R59T, E75A, H80Y, R112Q
notes: periplasmic extract; also called clone nr; 19
B34: FJ1427_P035MP01E11 (VHH)
VHH: B29 VHH with H80Y
notes: periplasmic extract; also called clone nr; 85

What follows are binders tested against T1, human IL-2Rα (assay: ELISA, P.E. on coated antigen).
Description: In a binding ELISA, human or mouse IL-2Rα, IL-2Rβ and IL-2Rγ proteins were coated directly on maxisorp microtiter plates overnight at 4° C. Free binding sites were blocked using 4% Marvel in PBS for 1 hour. Next, 1:5 dilution of P.E. in 1% Marvel/PBS were added to wells and incubated for 1 hour. […] Binding specificity was determined based on O.D. at 450 nm values compared to negative controls.

Row | Binder | OD (PE binding ELISA)
1 | B1 | 2.57 OD450 nm
2 | B2 | 2.46 OD450 nm
3 | B3 | 2.51 OD450 nm
4 | B4 | 2.51 OD450 nm
5 | B5 | 2.51 OD450 nm
6 | B6 | 2.34 OD450 nm
7 | B7 | 2.5 OD450 nm
8 | B8 | 2.71 OD450 nm
9 | B9 | 2.76 OD450 nm
10 | B10 | 2.78 OD450 nm
11 | B11 | 2.71 OD450 nm
12 | B12 | 2.35 OD450 nm
13 | B13 | 2.75 OD450 nm
14 | B14 | 2.54 OD450 nm
15 | B15 | 2.14 OD450 nm
16 | B16 | 2.78 OD450 nm
17 | B17 | 2.61 OD450 nm

Row | Binder | OD (PE binding ELISA)
18 | B18 | 2.85 OD450 nm
19 | B19 | 2.75 OD450 nm
20 | B20 | 3.21 OD450 nm
21 | B21 | 3.05 OD450 nm
22 | B22 | 2.74 OD450 nm
23 | B23 | 2.73 OD450 nm
24 | B24 | 2.86 OD450 nm
25 | B25 | 2.62 OD450 nm
26 | B26 | 1.79 OD450 nm
27 | B27 | 2.81 OD450 nm
28 | B28 | 2.53 OD450 nm
29 | B29 | 2.79 OD450 nm
30 | B30 | 2.87 OD450 nm
31 | B31 | 2.59 OD450 nm
32 | B32 | 2.65 OD450 nm
33 | B33 | 2.84 OD450 nm
34 | B34 | 2.69 OD450 nm

The binders below were run against T1, human IL-2Rα (assay: SPR, P.E. on immobilised antigen).
Description: SPR was performed to determine dissociation rates using Biacore 3000 instrument (GE Healthcare). Briefly, human and mouse IL-2R proteins were immobilized on carboxylmethyl dextran sensor chip (CM5) at approximately 2500 RUs using amine coupling in acetate buffer (GE Healthcare). The VHH-containing P.E. were loaded with a flow rate of 30 uL/min and the off-rates were measured over a 120s period.

Row | Binder | koff
35 | B1 | 0.00184 s⁻¹
36 | B2 | 0.000639 s⁻¹
37 | B3 | 0.000677 s⁻¹
38 | B4 | 0.000591 s⁻¹
39 | B5 | 0.00067 s⁻¹
40 | B6 | 0.000742 s⁻¹
41 | B7 | 0.00391 s⁻¹
42 | B8 | 0.00162 s⁻¹
43 | B9 | 0.00295 s⁻¹
44 | B10 | 0.00178 s⁻¹
45 | B11 | 0.000526 s⁻¹
46 | B12 | 0.00115 s⁻¹
47 | B13 | 0.000443 s⁻¹
48 | B14 | 0.000799 s⁻¹
49 | B15 | 0.00112 s⁻¹
50 | B16 | 0.00119 s⁻¹
51 | B17 | 0.00235 s⁻¹

Row | Binder | koff
52 | B18 | 0.00112 s⁻¹
53 | B19 | 0.0015 s⁻¹
54 | B20 | 0.0027 s⁻¹
55 | B21 | 0.00144 s⁻¹
56 | B22 | 0.00118 s⁻¹
57 | B23 | 0.00159 s⁻¹
58 | B24 | 0.00128 s⁻¹
59 | B25 | 0.00042 s⁻¹
60 | B26 | 0.0206 s⁻¹
61 | B27 | 0.000778 s⁻¹
62 | B28 | 0.000383 s⁻¹
63 | B29 | 0.00107 s⁻¹
64 | B30 | 0.00327 s⁻¹
65 | B31 | 0.00189 s⁻¹
66 | B32 | 0.00276 s⁻¹
67 | B33 | 0.00144 s⁻¹
68 | B34 | 0.000704 s⁻¹

Reference: US20240409645A1 (DUALYX, published 2024)
